Source: article PMC6539845 (International Journal of Molecular Sciences, 2019)
Values joined by “and” are separate entries in the source; they are usually repeats but may differ in a detail not shown here. Identical values can stand only once.

B1: human proteasome α1 subunit (natural protein)
chain: not shown
notes: proteasome subunit α1 (PSMA6), human, residues 1-246; subcloned into the NdeI and SalI sites of pET28b; also called PSMA6
B2: human proteasome α4 subunit (natural protein, UniProt O14818 1-248, looked up)
chain: MSYDRAITVFSPDGHLFQVEYAQEAVKKGSTAVGVRGRDIVVLGVEKKSVAKLQDERTVRKICALDDNVCMAFAGLTADARIVINRARVECQSHRLTVEDPVTVEYITRYIASLKQRYTQSNGRRPFGISALIVGFDFDGTPRLYQTDPSGTYHAWKANAIGRGAKSVREFLEKNYTDEAIETDDLTIKLVIKALLEVVQSGGKNIELAVMRRDQSLKILNPEEIEKYVAEIEKEKEENEKKKQKKAS
notes: proteasome subunit α4 (PSMA7), human, residues 1-248; subcloned into the NdeI and SalI sites of pET28b; also called PSMA7
B3: human proteasome α2 subunit (natural protein, UniProt P25787 1-234, looked up)
chain: MAERGYSFSLTTFSPSGKLVQIEYALAAVAGGAPSVGIKAANGVVLATEKKQKSILYDERSVHKVEPITKHIGLVYSGMGPDYRVLVHRARKLAQQYYLVYQEPIPTAQLVQRVASVMQEYTQSGGVRPFGVSLLICGWNEGRPYLFQSDPSGAYFAWKATAMGKNYVNGKTFLEKRYNEDLELEDAIHTAILTLKESFEGQMTEDNIEVGICNEAGFRRLTPTEVKDYLAAIA
notes: proteasome subunit α2 (PSMA2), human, residues 1-234; subcloned into the NdeI and XhoI sites of pRSFDuet-1; no tag is named; also called PSMA2
B4: human proteasome α5 subunit (natural protein, UniProt P28066 1-241, looked up)
chain: MFLTRSEYDRGVNTFSPEGRLFQVEYAIEAIKLGSTAIGIQTSEGVCLAVEKRITSPLMEPSSIEKIVEIDAHIGCAMSGLIADAKTLIDKARVETQNHWFTYNETMTVESVTQAVSNLALQFGEEDADPGAMSRPFGVALLFGGVDEKGPQLFHMDPSGTFVQCDARAIGSASEGAQSSLQEVYHKSMTLKEAIKSSLIILKQVMEEKLNATNIELATVQPGQNFHMFTKEELEEVIKDI
notes: proteasome subunit α5 (PSMA5), human, residues 1-241; the vector holds a TEV protease cleavage site preceding the gene; also called PSMA5
B5: human proteasome α3 subunit (natural protein, UniProt P25789 1-261, looked up)
chain: MSRRYDSRTTIFSPEGRLYQVEYAMEAIGHAGTCLGILANDGVLLAAERRNIHKLLDEVFFSEKIYKLNEDMACSVAGITSDANVLTNELRLIAQRYLLQYQEPIPCEQLVTALCDIKQAYTQFGGKRPFGVSLLYIGWDKHYGFQLYQSDPSGNYGGWKATCIGNNSAAAVSMLKQDYKEGEMTLKSALALAIKVLNKTMDVSKLSAEKVEIATLTRENGKTVIRVLKQKEVEQLIKKHEEEEAKAEREKKEKEQKEKDK
notes: proteasome subunit α3 (PSMA4), human, residues 1-261; the vector holds a TEV protease cleavage site preceding the gene; also called PSMA4

Tests used:
[1] = target: the molecule itself; test: native MS; single proteins, 5–20 μM monomers, 150 mM ammonium acetate (pH 6.8–8.0), nanoflow electrospray
[2] = target: T1, human proteasome α7 subunit, wild type (human, UniProt P25788 1-255); test: native MS; α4 or α6 (4 μM monomers) mixed with α7 (2 μM tetradecamer), 20 °C, 1 h, 150 mM ammonium acetate; details: both partners purified
T1 construct: proteasome subunit α7 (PSMA3), human, residues 1-255; wild-type construct in pRSFDuet-1; also called PSMA3; α7 homotetradecamer; copies: 14
T1 sequence (P25788 whole entry, the tested form may be a part): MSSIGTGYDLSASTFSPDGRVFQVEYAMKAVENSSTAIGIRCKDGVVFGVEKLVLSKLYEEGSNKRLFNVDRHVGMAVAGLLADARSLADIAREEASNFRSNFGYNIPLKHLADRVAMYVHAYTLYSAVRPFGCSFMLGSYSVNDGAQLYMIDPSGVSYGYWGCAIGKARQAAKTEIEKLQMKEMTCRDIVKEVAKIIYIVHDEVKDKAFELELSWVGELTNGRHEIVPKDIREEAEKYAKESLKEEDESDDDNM

Row | Binder | stoichiometry N [1] | stoichiometry N [2]
1 | B1 | 2 | –
2 | B2 | 2 | 7 α7 subunits per α4 and 14 α7 subunits per α4
3 | B3 | 2 | –
4 | B4 | 2 | –
5 | B5 | 2 | –
